This test concerns the target T1, GST–PPM1A (human, UniProt P35813-1 1-382).
T1 construct: also called GST–PPM1A-WT; purified PPM1A
T1 sequence (looked up): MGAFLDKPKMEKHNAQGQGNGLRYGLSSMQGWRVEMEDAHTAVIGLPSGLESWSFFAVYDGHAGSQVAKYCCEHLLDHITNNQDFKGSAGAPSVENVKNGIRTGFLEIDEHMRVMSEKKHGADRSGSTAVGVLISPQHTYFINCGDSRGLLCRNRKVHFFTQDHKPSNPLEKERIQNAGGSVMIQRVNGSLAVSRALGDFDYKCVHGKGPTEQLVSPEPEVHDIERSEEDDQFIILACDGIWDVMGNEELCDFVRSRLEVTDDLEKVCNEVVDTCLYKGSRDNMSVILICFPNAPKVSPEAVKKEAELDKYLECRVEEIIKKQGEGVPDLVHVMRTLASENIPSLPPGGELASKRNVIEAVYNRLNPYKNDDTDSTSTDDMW
Kind of test: pull-down; 1 μg of each purified protein incubated with glutathione–Sepharose beads at 4°C overnight; washed with 50 mM Tris-HCl pH 7.5, 200 mM NaCl, 10% glycerol, 0.1% Triton X-100; immunoblot. Conditions: both partners purified.

B1: His–STING (amino acids 153–379) (domain or fragment, human, UniProt Q86WV6 153-379, looked up)
chain: FNVAHGLAWSYYIGYLRLILPELQARIRTYNQHYNNLLRGAVSQRLYILLPLDCGVPDNLSMADPNIRFLDKLPQQTGDHAGIKDRVYSNSIYELLENGQRAGTCVLEYATPLQTLFAMSQYSQAGFSREDRLEQAKLFCRTLEDILADAPESQNNCRLIAYQEPADDSSFSLSQEVLRHLRQEEKEEVTVGSLKTSAVPSTSTMSQEPELLISGMEKPLPLRTDFS
Take B1: the binding result is reported as “binds”.

(Values after paper PMC4376777 (PLoS Pathogens, 2015).)
